Results published in the supplement of paper PMC7125110.
± gives the standard error. This sample holds only a part of the variants without activity.

B1: glmS ribozyme (parent)
chain: AUAAAAGCGCCAGAACUACAGAAAUGUAGUUGACGAGGAGGAGGUUUAUCGAAUUUUCGGCGGAUGCCUCCAAA

How the values were obtained:
Conditions in all cases: with glucosamine-6-phosphate
glucosamine-6-phosphate [1] = variants of: B1; assay: self-cleavage kobs at 40 uM GlcN6P; higher = faster cleavage; RNA array
How it was run: (§1)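 Over ~14 h at 37 °C, tiles were imaged as glucosamine-6-phosphate (40 μM to 10 mM) in HEPES/KCl/Mg(OAc)2 buffer flowed across sequenced MiSeq chips. The chips carried barcoded ribozyme variants transcribed in situ by E. coli RNA polymerase and tracked with a hybridised Cy3 probe. After normalisation to baseline and to non-cleaving reference variants, one- or two-exponential decay fits of per-tile medians gave kobs. kcat and KM followed from weighted Michaelis–Menten fits across concentrations.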

glucosamine-6-phosphate [2] = variants of: B1; assay: self-cleavage kobs at 10000 uM GlcN6P; higher = faster cleavage; RNA array
How it was run: as §1

glucosamine-6-phosphate [3] = variants of: B1; assay: self-cleavage kobs at 640 uM GlcN6P; higher = faster cleavage; RNA array
How it was run: as §1

glucosamine-6-phosphate [4] = variants of: B1; assay: self-cleavage kobs at 2500 uM GlcN6P; higher = faster cleavage; RNA array
How it was run: as §1

glucosamine-6-phosphate [5] = variants of: B1; assay: self-cleavage kobs at 160 uM GlcN6P; higher = faster cleavage; RNA array
How it was run: as §1

| Variant | self-cleavage kobs at 40 uM GlcN6P (glucosamine-6-phosphate [1]) | self-cleavage kobs at 10000 uM GlcN6P (glucosamine-6-phosphate [2]) | self-cleavage kobs at 640 uM GlcN6P (glucosamine-6-phosphate [3]) | self-cleavage kobs at 2500 uM GlcN6P (glucosamine-6-phosphate [4]) | self-cleavage kobs at 160 uM GlcN6P (glucosamine-6-phosphate [5]) |
| --- | --- | --- | --- | --- | --- |
| A14U G35U U69G | 0.000295 ± 0.00012 s⁻¹ | 6.56e-05 ± 1.9e-05 s⁻¹ | – | – | – |
| U31G C50G C67U | 8.62e-05 ± 1.8e-05 s⁻¹ | 0.000109 ± 2.3e-05 s⁻¹ | – | – | – |
| G29U A33U G35A U69A | 0.000163 ± 6.6e-05 s⁻¹ | 6.21e-05 ± 3e-05 s⁻¹ | – | – | – |
| C61U C67A C70U | 4.32e-05 ± 1.7e-05 s⁻¹ | – | – | – | – |
| A6C G9A | < 1e-05 s⁻¹ | < 1e-05 s⁻¹ | – | – | – |
| C8U C68A | < 1e-05 s⁻¹ | – | < 1e-05 s⁻¹ | < 1e-05 s⁻¹ | – |
| U30A A33U C34G G37A | < 1e-05 s⁻¹ | – | – | – | – |
| C10A G29A C67G | 0.000103 ± 3.7e-05 s⁻¹ | 0.000102 ± 3e-05 s⁻¹ | – | – | – |
| G43C U57A C70G | < 1e-05 s⁻¹ | – | < 1e-05 s⁻¹ | < 1e-05 s⁻¹ | – |
| G40A G44A C70U | < 1e-05 s⁻¹ | < 1e-05 s⁻¹ | – | – | – |
| G37U G59U | < 1e-05 s⁻¹ | – | < 1e-05 s⁻¹ | – | – |
| G40C G43C | < 1e-05 s⁻¹ | < 1e-05 s⁻¹ | – | < 1e-05 s⁻¹ | < 1e-05 s⁻¹ |
| C16G G21U | 0.00012 ± 5.7e-05 s⁻¹ | – | – | – | – |
| G40U G51A | < 1e-05 s⁻¹ | < 1e-05 s⁻¹ | < 1e-05 s⁻¹ | < 1e-05 s⁻¹ | – |
| C8G C50G C67A | 0.000144 ± 2.5e-05 s⁻¹ | 0.000113 ± 1.8e-05 s⁻¹ | – | – | – |
| G9A C10G C68U | < 1e-05 s⁻¹ | – | – | – | – |
| G21U G40C | 0.000253 ± 6.1e-05 s⁻¹ | 0.00248 ± 0.00053 s⁻¹ | – | – | – |
| A15U A39C G41C | < 1e-05 s⁻¹ | – | < 1e-05 s⁻¹ | < 1e-05 s⁻¹ | – |
| G41C U65G | < 1e-05 s⁻¹ | – | < 1e-05 s⁻¹ | – | < 1e-05 s⁻¹ |
| C10U C61U | < 1e-05 s⁻¹ | < 1e-05 s⁻¹ | < 1e-05 s⁻¹ | – | – |
| G40C U56A G62C | < 1e-05 s⁻¹ | – | – | < 1e-05 s⁻¹ | – |
| G9U G43C U46G C67A | < 1e-05 s⁻¹ | – | – | – | – |
| G41U C50U G59U G66U | < 1e-05 s⁻¹ | – | – | – | – |
| C16A C70U | 5.31e-05 ± 7.6e-06 s⁻¹ | 0.0015 ± 0.00026 s⁻¹ | 0.000192 ± 2.7e-05 s⁻¹ | 0.000365 ± 5.1e-05 s⁻¹ | 0.000117 ± 3.3e-05 s⁻¹ |
| C16G A36C | < 1e-05 s⁻¹ | < 1e-05 s⁻¹ | < 1e-05 s⁻¹ | – | – |
| G62A A64C | < 1e-05 s⁻¹ | < 1e-05 s⁻¹ | < 1e-05 s⁻¹ | < 1e-05 s⁻¹ | < 1e-05 s⁻¹ |
| G51C A64U | < 1e-05 s⁻¹ | < 1e-05 s⁻¹ | < 1e-05 s⁻¹ | – | < 1e-05 s⁻¹ |
